The record followed here is patent publication US20190100594A1.

Read-outs that look alike come from different tables or passages of the source.

The target in experiment [1] is GITR expressed on CHO cells (Homo sapiens (Human)) (UniProt Q9Y5U5). As to the kind of experiment: flow cytometry on GITR-expressing CHO cells, MFI-FL4. For orientation: A flow cytometer gives signals particle by particle.
For experiment [2] the target is unchanged. Described as above. The source holds these as a separate data set.

Sequence of GITR expressed on CHO cells (Homo sapiens (Human)) (Q9Y5U5 26-241 limits assumed): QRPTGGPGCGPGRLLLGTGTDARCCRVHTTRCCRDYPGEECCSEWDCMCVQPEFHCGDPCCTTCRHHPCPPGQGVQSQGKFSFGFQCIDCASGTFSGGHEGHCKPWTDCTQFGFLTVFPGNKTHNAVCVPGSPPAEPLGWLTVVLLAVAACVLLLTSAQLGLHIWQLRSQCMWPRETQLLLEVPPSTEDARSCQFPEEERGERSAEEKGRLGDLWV

A word on the EC50 (read off the curve): it is the concentration giving half of the maximal effect. Read a low EC50 (read off the curve) as greater potency. For the substance TRX-518 (antibody), the half-maximal effective concentration (EC50 (read off the curve)) in experiment [1] was found to be 3 nM; in experiment [2], 1 nM.
